B1: Arabidopsis thaliana cryptochrome 2 (CRY2, UniProt Q96524), residues 1-535 fused after the Gal4 DNA-binding domain (Gal4BD-CRY2(535)); mutagenized window 321-412, Q96524 (parent)
chain: MKMDKKTIVWFRRDLRIEDNPALAAAAHEGSVFPVFIWCPEEEGQFYPGRASRWWMKQSLAHLSQSLKALGSDLTLIKTHNTISAILDCIRVTGATKVVFNHLYDPVSLVRDHTVKEKLVERGISVQSYNGDLLYEPWEIYCEKGKPFTSFNSYWKKCLDMSIESVMLPPPWRLMPITAAAEAIWACSIEELGLENEAEKPSNALLTRAWSPGWSNADKLLNEFIEKQLIDYAKNSKKVVGNSTSLLSPYLHFGEISVRHVFQCARMKQIIWARDKNSEGEESADLFLRGIGLREYSRYICFNFPFTHEQSLLSHLRFFPWDADVDKFKAWRQGRTGYPLVDAGMRELWATGWMHNRIRVIVSSFAVKFLLLPWKWGMKYFWDTLLDADLECDILGWQYISGSIPDGHELDRLDNPALQGAKYDPEGEYIRQWLPELARLPTEWIHHPWDAPLTVLKASGVELGTNYAKPIVDIDTARELLAKAISRTREAQIMIGAAPDEIVADSFEALGANTIKEPGLCPSVSSNDQQVPSAV

Variants of: B1
Assay: yeast two-hybrid growth selection (MaV203; Gal4BD-CRY2(1-535) library x Gal4AD-CIB1; URA3 reporter on SC -Trp/-Leu/-Ura) in the dark, deep sequencing before and after selection, Enrich2 scoring; three independent screens (one at 48 h, two …)
Settings: with CIB1 (CRYPTOCHROME-INTERACTING BASIC-HELIX-LOOP-HELIX 1), dark (no blue light), screens 1, 3 and 4, Svar > 0 = enriched under dark selection for CRY2-CIB1 two-hybrid growth (URA3 reporter), < 0 = depleted, relative to wild type (whose scores are 0). 'The Enrich2 software calculates, parent: 0, not an affinity, scale: Enrich2 score, numbering: uniprot, sequence starts at 1
T336A showed an enrichment of -1.84. For T336I, the enrichment was -1.58. For T336N, the enrichment was -0.274. For T336P, the enrichment was -0.907. For T336S, the enrichment was 0.494. Work on G337C yielded an enrichment of -1.19. G337R showed an enrichment of -0.665. G337S was tested, and the enrichment was -0.736. Variant G337V has an enrichment of -1.13. Y338C showed an enrichment of -1.57. With Y338D the enrichment was -1.31. Y338F was tested, and the enrichment was -0.84. Y338H was tested, and the enrichment was -0.584. Work on Y338N yielded an enrichment of -1.68. Y338S showed an enrichment of -0.758. P339L showed an enrichment of -1.02. Variant P339Q has an enrichment of -1.15. Variant P339T has an enrichment of -0.66. L340F showed an enrichment of -1.05. With L340M the enrichment was 0.444. For L340S, the enrichment was -1.47. For L340V, the enrichment was -0.561. L340W gave an enrichment of -1.48. Work on V341A yielded an enrichment of -1.68. V341E showed an enrichment of -1.64. Variant V341G has an enrichment of -1.65. For V341L, the enrichment was -1.04. In the case of V341M, the enrichment is reported as -0.679. Work on D342A yielded an enrichment of -0.75. For D342E, the enrichment was -1.69. With D342G the enrichment was -1.84. Work on D342N yielded an enrichment of -0.898. D342V showed an enrichment of -1.71. In the case of D342Y, the enrichment is reported as -1.02. A343D showed an enrichment of -0.747. A343G gave an enrichment of -0.899. Work on A343P yielded an enrichment of -2.1. Variant A343T has an enrichment of -0.823. Work on G344E yielded an enrichment of -0.724. In the case of G344R, the enrichment is reported as -0.722. G344V was tested, and the enrichment was -1.21. M345I gave an enrichment of -0.745. M345K was tested, and the enrichment was -1.43. With M345L the enrichment was -0.395. For M345R, the enrichment was -1.12. With M345T the enrichment was -1.83. M345V gave an enrichment of -1.49. R346G gave an enrichment of -1.54. In the case of R346I, the enrichment is reported as -1.1. In the case of R346K, the enrichment is reported as 0.452. With R346S the enrichment was -1.36. E347A was tested, and the enrichment was 0.457. E347D gave an enrichment of -0.854. With E347G the enrichment was -1.39. E347K gave an enrichment of -1.6. With E347V the enrichment was -1.41. For L348F, the enrichment was 2.98. With L348H the enrichment was -1.52. In the case of L348I, the enrichment is reported as -0.199. Work on L348P yielded an enrichment of -1.54. L348R was tested, and the enrichment was -1.14. For W349C, the enrichment was 0.242. With W349G the enrichment was 0.303. With W349R the enrichment was 0.599. In the case of W349S, the enrichment is reported as 0.756. In the case of A350D, the enrichment is reported as -0.775. Variant A350G has an enrichment of 0.232. A350P showed an enrichment of -1.4. A350S gave an enrichment of 0.303. Variant A350T has an enrichment of -0.108. In the case of A350V, the enrichment is reported as -0.0426. With T351A the enrichment was -1.04. In the case of T351N, the enrichment is reported as -0.315. For T351P, the enrichment was -0.191. Variant T351S has an enrichment of -0.0139. G352A was tested, and the enrichment was -1.47. For G352E, the enrichment was -0.327. G352R gave an enrichment of -0.844. W353C was tested, and the enrichment was -0.321. Variant W353G has an enrichment of -0.0561. With W353L the enrichment was -0.339. W353R was tested, and the enrichment was -1.15. W353S gave an enrichment of -0.64. In the case of M354I, the enrichment is reported as 0.689.
